Test results: doi:10.1101/850305 (bioRxiv, 2019)

Biological target: the molecule itself
Assay: crystal structure

B1: E. coli LpxA UDP-N-acetylglucosamine acyltransferase (enzyme, UniProt P0A722 1-262, looked up)
chain: MIDKSAFVHPTAIVEEGASIGANAHIGPFCIVGPHVEIGEGTVLKSHVVVNGHTKIGRDNEIYQFASIGEVNQDLKYAGEPTRVEIGDRNRIRESVTIHRGTVQGGGLTKVGSDNLLMINAHIAHDCTVGNRCILANNATLAGHVSVDDFAIIGGMTAVHQFCIIGAHVMVGGCSGVAQDVPPYVIAQGNHATPFGVNIEGLKRRGFSREAITAIRNAYKLIYRSGKTLDEVKPEIAELAETYPEVKAFTDFFARSTRGLIR
stoichiometry N: 3
